For the series, the system named is PurR (Escherichia coli K12?). In words: MST. The following applies: panel assigned by order of figure text (h before i); EMSA: binding buffer 250 mM Tris pH 6.8, 150 mM NaCl, 5 mM EDTA, 10 mM DTT, 50% glycerol; 8% PAGE in 20 mM Tris-borate, 1 mM EDTA pH 8.0, 4 C, 80 V, EB stain ….

Substance glyA promoter (212 bp) yielded a Kd of 239 µM.
With kbl promoter (208 bp) the figure was 7.11 µM.

These data come from paper PMC6658569.
